Data from patent publication US10941182 (Amgen, dated 2021).
Starred links: 1 amine or outer side, 2 acyl side, 3 side chain; linkers in the order of their positions; H or OH if unused. Non-standard residues stand in square brackets, D forms with d. *: point of attachment. AC4Abu = α-carboxy-4-aminobutyric acid, O=C(C(CCN[*:1])C(=O)[*:3])[*:2]; dBip = N[C@H](Cc1ccc(-c2ccccc2)cc1)C(=O)O; Oic = O=C(O)[C@@H]1C[C@@H]2CCCC[C@@H]2N1; Phe(4-Cl) = N[C@@H](Cc1ccc(Cl)cc1)C(=O)O; dPhe(4-Cl) = N[C@H](Cc1ccc(Cl)cc1)C(=O)O; Heptadecanoyl = CCCCCCCCCCCCCCCCC(=O)*; Phe(4-I) = N[C@@H](Cc1ccc(I)cc1)C(=O)O; γGlu = O=C(O)[C@H](CCC(=O)[*:2])N[*:1]; C12 diacid = O=C(O)CCCCCCCCCCC(=O)*; NMeR = CN[C@@H](CCCNC(=N)N)C(=O)O; hArg = N=C(N)NCCCC[C@H](N)C(=O)O; Cha = N[C@@H](CC1CCCCC1)C(=O)O; NMeL = CN[C@@H](CC(C)C)C(=O)O; Nle = CCCC[C@H](N)C(=O)O; Hexanoyl = CCCCCC(=O)*; AEEA = NCCOCCOCC(=O)O; Aib = CC(C)(N)C(=O)O; Mpa = O=C(O)CCS

T1: human APJ receptor (human, UniProt P35414 1-380)
T1 sequence (looked up): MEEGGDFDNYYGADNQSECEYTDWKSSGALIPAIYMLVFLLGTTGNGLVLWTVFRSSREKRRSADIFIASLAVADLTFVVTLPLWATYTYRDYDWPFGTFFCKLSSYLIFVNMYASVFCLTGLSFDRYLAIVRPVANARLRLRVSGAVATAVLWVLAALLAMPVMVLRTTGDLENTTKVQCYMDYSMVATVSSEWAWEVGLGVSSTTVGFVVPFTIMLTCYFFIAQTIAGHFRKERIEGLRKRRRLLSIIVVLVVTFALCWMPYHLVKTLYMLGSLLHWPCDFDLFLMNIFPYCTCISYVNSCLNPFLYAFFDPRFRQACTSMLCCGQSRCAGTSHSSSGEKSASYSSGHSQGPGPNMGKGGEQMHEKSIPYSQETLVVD

T2: rat APJ receptor (rat, UniProt Q9JHG3 1-377)
T2 sequence (looked up): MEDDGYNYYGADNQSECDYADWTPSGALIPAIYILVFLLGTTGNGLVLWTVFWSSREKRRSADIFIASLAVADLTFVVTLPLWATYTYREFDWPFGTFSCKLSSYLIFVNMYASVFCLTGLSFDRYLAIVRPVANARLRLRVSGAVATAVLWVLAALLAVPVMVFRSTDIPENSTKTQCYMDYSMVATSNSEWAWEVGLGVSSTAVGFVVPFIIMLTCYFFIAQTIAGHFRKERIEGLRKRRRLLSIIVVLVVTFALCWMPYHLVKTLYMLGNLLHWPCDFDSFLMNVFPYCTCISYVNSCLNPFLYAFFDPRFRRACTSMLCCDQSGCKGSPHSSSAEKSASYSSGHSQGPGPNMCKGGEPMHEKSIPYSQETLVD


Legend:
human APJ receptor = target: T1, human APJ receptor; test: cell-based or functional assay
rat APJ receptor = target: T2, rat APJ receptor; test: cell-based or functional assay

| Binder | EC50 Human APJ Receptor (human APJ receptor) | EC50 Rat APJ Receptor (rat APJ receptor) |
| --- | --- | --- |
| Ac-RQRPRLSHKGP[Nle]P[dBip]-OH (SMILES CCCC[C@H](NC(=O)[C@@H]1CCCN1C(=O)CNC(=O)[C@H](CCCCN)NC(=O)[C@H](Cc1c[nH]cn1)NC(=O)[C@H](CO)NC(=O)[C@H](CC(C)C)NC(=O)[C@H](CCCNC(=N)N)NC(=O)[C@@H]1CCCN1C(=O)[C@H](CCCNC(=N)N)NC(=O)[C@H](CCC(N)=O)NC(=O)[C@H](CCCNC(=N)N)NC(C)=O)C(=O)N1CCC[C@H]1C(=O)N[C@H](Cc1ccc(-c2ccccc2)cc1)C(=O)O) [SEQ ID NO: 62] | 0.303 nM | 3.43 nM |
| Hexanoyl-[γGlu][AEEA][AEEA][AEEA][hArg]Q[hArg]P[NMeR][Cha]SHKG[Oic][Nle]P[Phe(4-Cl)]-OH (SMILES CCCCCC(=O)N[C@@H](CCC(=O)NCCOCCOCC(=O)NCCOCCOCC(=O)NCCOCCOCC(=O)N[C@@H](CCCCNC(=N)N)C(=O)N[C@@H](CCC(N)=O)C(=O)N[C@@H](CCCCNC(=N)N)C(=O)N1CCC[C@H]1C(=O)N(C)[C@@H](CCCNC(=N)N)C(=O)N[C@@H](CC1CCCCC1)C(=O)N[C@@H](CO)C(=O)N[C@@H](Cc1c[nH]cn1)C(=O)N[C@@H](CCCCN)C(=O)NCC(=O)N1[C@H](C(=O)N[C@@H](CCCC)C(=O)N2CCC[C@H]2C(=O)N[C@@H](Cc2ccc(Cl)cc2)C(=O)O)C[C@@H]2CCCC[C@@H]21)C(=O)O) [SEQ ID NO: 506] | 3.49 nM | 13.2 nM |
| Ac-RQRP[NMeR][NMeL]SHKGP[Nle]P[Phe(4-Cl)]-OH (SMILES CCCC[C@H](NC(=O)[C@@H]1CCCN1C(=O)CNC(=O)[C@H](CCCCN)NC(=O)[C@H](Cc1c[nH]cn1)NC(=O)[C@H](CO)NC(=O)[C@H](CC(C)C)N(C)C(=O)[C@H](CCCNC(=N)N)N(C)C(=O)[C@@H]1CCCN1C(=O)[C@H](CCCNC(=N)N)NC(=O)[C@H](CCC(N)=O)NC(=O)[C@H](CCCNC(=N)N)NC(C)=O)C(=O)N1CCC[C@H]1C(=O)N[C@@H](Cc1ccc(Cl)cc1)C(=O)O) [SEQ ID NO: 67] | 0.185 nM | 1.4 nM |
| Ac-RQRPR[NMeL]SHKGP[Nle]P[Phe(4-Cl)]-OH (SMILES CCCC[C@H](NC(=O)[C@@H]1CCCN1C(=O)CNC(=O)[C@H](CCCCN)NC(=O)[C@H](Cc1c[nH]cn1)NC(=O)[C@H](CO)NC(=O)[C@H](CC(C)C)N(C)C(=O)[C@H](CCCNC(=N)N)NC(=O)[C@@H]1CCCN1C(=O)[C@H](CCCNC(=N)N)NC(=O)[C@H](CCC(N)=O)NC(=O)[C@H](CCCNC(=N)N)NC(C)=O)C(=O)N1CCC[C@H]1C(=O)N[C@@H](Cc1ccc(Cl)cc1)C(=O)O) [SEQ ID NO: 64] | 0.0555 nM | 0.411 nM |
| Ac-RQRPR[Cha]SHKGP[Nle]P[Phe(4-Cl)]-OH (SMILES CCCC[C@H](NC(=O)[C@@H]1CCCN1C(=O)CNC(=O)[C@H](CCCCN)NC(=O)[C@H](Cc1c[nH]cn1)NC(=O)[C@H](CO)NC(=O)[C@H](CC1CCCCC1)NC(=O)[C@H](CCCNC(=N)N)NC(=O)[C@@H]1CCCN1C(=O)[C@H](CCCNC(=N)N)NC(=O)[C@H](CCC(N)=O)NC(=O)[C@H](CCCNC(=N)N)NC(C)=O)C(=O)N1CCC[C@H]1C(=O)N[C@@H](Cc1ccc(Cl)cc1)C(=O)O) [SEQ ID NO: 63] | 0.036 nM | 0.164 nM |
| QRPRLSHKGPXPF ({H2}[MerPr](10K mPEG acetamide)Q[NMehArg]P[NMeArg][aMeLeu]SHKGP[Nle]P[4-Cl-F]{COOH}) [SEQ ID NO: 116] | 9.71 nM | 40.8 nM |
| Ac-RQRP[NMeR]LSHKGP[Nle]P[Phe(4-Cl)]-OH (SMILES CCCC[C@H](NC(=O)[C@@H]1CCCN1C(=O)CNC(=O)[C@H](CCCCN)NC(=O)[C@H](Cc1c[nH]cn1)NC(=O)[C@H](CO)NC(=O)[C@H](CC(C)C)NC(=O)[C@H](CCCNC(=N)N)N(C)C(=O)[C@@H]1CCCN1C(=O)[C@H](CCCNC(=N)N)NC(=O)[C@H](CCC(N)=O)NC(=O)[C@H](CCCNC(=N)N)NC(C)=O)C(=O)N1CCC[C@H]1C(=O)N[C@@H](Cc1ccc(Cl)cc1)C(=O)O) [SEQ ID NO: 65] | 0.0302 nM | 0.122 nM |
| XXXQRPRLSHKGPXPF ({Dodecanoyl-NH}[AC4Abu][Aeea][Aeea]QRP[NMeArg]LSHKGP[Nle]P[4-Cl-F]{COOH}) [SEQ ID NO: 591] | 0.476 nM | 1.84 nM |
| KLRKHNXLQRRXMPLHSRVPFP ({H2}KLRKHN[Abu]LQRR[Abu]MPLHSRVPFP{COOH}) [SEQ ID NO: 14] | 0.301 nM | 32.4 nM |
| H-KFRRQRPRLSHKGPMP-OH [SEQ ID NO: 12] | 1.42 nM | 5.81 nM |
| QRPRLSHKGPXPF ({H2}[MerPr](10K mPEG acetamide)QR[aMePro][hArg][aMeLeu]SHKGP[Nle]P[4-Cl-F]{COOH}) [SEQ ID NO: 114] | 0.848 nM | 3.46 nM |
| QRPRLSHKGPXPF ({H2}[MerPr](10K mPEG acetamide)QRP[NMeArg]LSHKGP[Nle]P[4-Cl-F]{COOH}) [SEQ ID NO: 115] | 1.66 nM | 6.49 nM |
| QRPRLSHKGPXPF ({H2}[MerPr](10K mPEG acetamide)QRP[hArg][aMeLeu]SHKGP[Nle]P[4-Cl-F]{COOH}) [SEQ ID NO: 117] | 19.7 nM | 117 nM |
| QRPRLSHKGPXPF ({H2}[MerPr](10K mPEG acetamide)Q[hArg]P[NMehArg]LSHKGP[Nle]P[4-Cl-F]{COOH}) [SEQ ID NO: 113] | 12.1 nM | 49.3 nM |
| Heptadecanoyl-[AC4Abu][AEEA][AEEA][dQ]RP[NMeR][Cha]SHKG[Oic][Nle]P[dPhe(4-Cl)]-OH (SMILES CCCCCCCCCCCCCCCCC(=O)NCCC(C(=O)O)C(=O)NCCOCCOCC(=O)NCCOCCOCC(=O)N[C@H](CCC(N)=O)C(=O)N[C@@H](CCCNC(=N)N)C(=O)N1CCC[C@H]1C(=O)N(C)[C@@H](CCCNC(=N)N)C(=O)N[C@@H](CC1CCCCC1)C(=O)N[C@@H](CO)C(=O)N[C@@H](Cc1c[nH]cn1)C(=O)N[C@@H](CCCCN)C(=O)NCC(=O)N1[C@H](C(=O)N[C@@H](CCCC)C(=O)N2CCC[C@H]2C(=O)N[C@H](Cc2ccc(Cl)cc2)C(=O)O)C[C@@H]2CCCC[C@@H]21) [SEQ ID NO: 576] | 3.33 nM | 5.17 nM |
| {mPEG 10 kDa acetamide}-[Mpa][dQ][hArg]P[NMeR][Cha]SHKG[Oic][Nle]P[dPhe(4-Cl)]-OH (numbers in words are those of the source; also: N-terminus written {H2}) [SEQ ID NO: 111] | 1100 nM | 777 nM |
| XXXQRPRLSHKGPXPF ({HDA}[AC4Abu][Aeea][Aeea]QRP[NMeArg]LSHKGP[Nle]P[4-Cl-F]{COOH}) [SEQ ID NO: 496] | 0.0874 nM | 0.481 nM |
| {C12 diacid}-[γGlu][AEEA][AEEA]Q[hArg]P[dR][NMeL]SHKG[Oic][Phe(4-I)]P[dBip]-OH (SMILES CC(C)C[C@@H](C(=O)N[C@@H](CO)C(=O)N[C@@H](Cc1c[nH]cn1)C(=O)N[C@@H](CCCCN)C(=O)NCC(=O)N1[C@H](C(=O)N[C@@H](Cc2ccc(I)cc2)C(=O)N2CCC[C@H]2C(=O)N[C@H](Cc2ccc(-c3ccccc3)cc2)C(=O)O)C[C@@H]2CCCC[C@@H]21)N(C)C(=O)[C@@H](CCCNC(=N)N)NC(=O)[C@@H]1CCCN1C(=O)[C@H](CCCCNC(=N)N)NC(=O)[C@H](CCC(N)=O)NC(=O)COCCOCCNC(=O)COCCOCCNC(=O)CC[C@H](NC(=O)CCCCCCCCCCC(=O)O)C(=O)O) [SEQ ID NO: 349] | 64 nM | 47.8 nM |
| QRPRLSHKGPXPF ({H2}[MerPr](10K mPEG acetamide)Q[hArg]P[NMeArg][aMeLeu]SHKGP[Nle]P[4-Cl-F]{COOH}) [SEQ ID NO: 112] | 2.32 nM | 10.4 nM |
| {10K mPEG acetamide}-[Mpa]QRP[NMeR][Cha]SHKG[Oic][Nle][Aib][Phe(4-Cl)]-OH [SEQ ID NO: 120] | 63.2 nM | 258 nM |
| SDFYKRLINKAKXXRRQRPRLSHKGXFPX ({Acetyl-NH}SDFYKRLINKAK[Aeea][Aeea][hArg]rQ[hArg]Pr[NMeLeu]SHKG[Oic][pI-Phe]P[D-Bip]{COOH}) [SEQ ID NO: 94] | 1.34 nM | 1.33 nM |
| QRPRLSHKGPXPF ({H2}[MerPr](10K mPEG acetamide)QrP[hArg][aMeLeu]SHKGP[Nle]P[4-Cl-F]{COOH}) [SEQ ID NO: 119] | 25.6 nM | 141 nM |
